Experimental data from patent US20220227829A1 (SHANGHAI GP BIOTECH, published 2022).

T1: CD25 on the surface of CTLL-2 cells (mouse cytotoxic T lymphocyte cell line) (mouse) (UniProt P01590)
T1 sequence (looked up): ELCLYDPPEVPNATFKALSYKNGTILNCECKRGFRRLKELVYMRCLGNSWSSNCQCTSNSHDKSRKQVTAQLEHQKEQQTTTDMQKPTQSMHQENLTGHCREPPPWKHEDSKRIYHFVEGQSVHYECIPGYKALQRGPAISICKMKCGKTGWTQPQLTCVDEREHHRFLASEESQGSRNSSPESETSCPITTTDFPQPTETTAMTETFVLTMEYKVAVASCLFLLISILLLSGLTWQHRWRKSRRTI


Key:
[1] = target: T1, CD25 on the surface of CTLL-2 cells (mouse cytotoxic T lymphocyte cell line) (mouse); assay: cell-based or functional assay
[2] = target: CD25 on the surface of NK92 cells (human NK cell line) (human) (UniProt P01589); assay: cell-based or functional assay

| EC50 (nM), NK92 cell proliferation [2] | Potency relative to rhIL-2 (%), NK92 cell proliferation [2] | Binder | EC50 (nM), CTLL-2 cell proliferation [1] | Potency relative to rhIL-2 (%), CTLL-2 cell proliferation [1] |
| --- | --- | --- | --- | --- |
| 0.0711 nM | 7.42% | IL-2gm5 (T3A, M39N, K49N, A73T), IgG1-Fc tag (Fc fusion) APASSSTKKTQLQLEHLLLDLQMILNGINNYKNPKLTRNLTFKFYMPKNATELKHLQCLEEELKPLEEVLNLTQSKNFHLRPRDLISNINVIVLELKGSETTFMCEYADETATIVEFLNRWITFAQSIISTLTEPKSSDKTHTSPPSPAPELEGGSSVFLFPPKPKDTLMISRTPEVTCVVVDVSHEDPEVKFNWYVDGVEVHNAKTKPREEQYASTYRVVSVLTVLHQDWLNGKAYACAVSNKALPAPIEKTISKAKGQPREPQVYTLPPSREEMTKNQVSLTCLVKGFYPSDIAVEWESNGQPENNYKTTPPVLDSDGSFFLYSKLTVDKSRWQQGNVFSCSVMHEALHNHYTQKSLSLSPGK | 0.173 nM | 1.68% |
| 0.824 nM | 0.641% | IL-2gm6 (T3A, M39N, K49N, A73T, D109N), IgG1-Fc tag (Fc fusion) APASSSTKKTQLQLEHLLLDLQMILNGINNYKNPKLTRNLTFKFYMPKNATELKHLQCLEEELKPLEEVLNLTQSKNFHLRPRDLISNINVIVLELKGSETTFMCEYANETATIVEFLNRWITFAQSIISTLTEPKSSDKTHTSPPSPAPELEGGSSVFLFPPKPKDTLMISRTPEVTCVVVDVSHEDPEVKFNWYVDGVEVHNAKTKPREEQYASTYRVVSVLTVLHQDWLNGKAYACAVSNKALPAPIEKTISKAKGQPREPQVYTLPPSREEMTKNQVSLTCLVKGFYPSDIAVEWESNGQPENNYKTTPPVLDSDGSFFLYSKLTVDKSRWQQGNVFSCSVMHEALHNHYTQKSLSLSPGK | 5.95 nM | 0.049% |
